The record followed here is patent US20250026838A1 (TRUEBINDING, published 2025).

Some results are limits rather than exact numbers.

Experiment [1] deals with T1, Human Galectin-3 (Gal3) protein (human, UniProt P17931 1-250).
T1 construct: also called hGal3; rhGal-3
The experiment in a line: competition ELISA, hGal3 coated; competitor: biotinylated aggregated alpha-synuclein. (In general: An ELISA detects its analyte on a solid surface through an enzyme-linked reagent.)

In experiment [2] the target is T1, Human Galectin-3 (Gal3) protein. In words: competition ELISA, hGal3 coated; competitor: biotinylated hTGFβR2.

T1 sequence (P17931 whole entry): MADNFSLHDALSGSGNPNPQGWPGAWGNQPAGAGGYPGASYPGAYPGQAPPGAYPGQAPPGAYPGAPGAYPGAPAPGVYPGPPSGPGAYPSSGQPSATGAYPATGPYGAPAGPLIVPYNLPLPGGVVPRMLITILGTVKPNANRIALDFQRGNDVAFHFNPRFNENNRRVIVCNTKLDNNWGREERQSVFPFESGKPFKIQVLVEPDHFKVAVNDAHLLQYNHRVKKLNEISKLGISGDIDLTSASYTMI

B1: TB001 (antibody, V domains shown)
VH: QVQLVQSGSELKKPGASVKVSCKASGYTFTNYGMNWVRQAPGQGLKWMGWINTNTGEPTYVEEFTGRFVFSLETSVSTAYLQISSLKAEDTAVYFCAPYDNFFAYWGQGTTVTVSS
VL: DIVLTQSPLSLPVTPGEPASISCRSSKSLLYKDGKTYLNWFLQKPGQSPQLLIYLMSTHASGVPDRFSGSGSGTDFTLKISRVEAEDVGVYYCQQLVDYPLTFGGGTKLEIK
notes: also called hTB001; IMT001-4-HCLC (TB001)
In the case of B1, the blocking efficacy in experiment [1] was above 70%.

B2: TB006 (antibody, human IgG4 S228P, kappa, V domains shown)
VH: QVQLVQSGAEVKKPGASVKVSCKASGYSFTNYYMHWVRQAPGQRLEWMGWIYPGSGNTNYNEKFQGRVTITADTSASTAYMELSSLRSEDTAVYYCSTAPGGFDVWGQGTTVTVSS
VL: DIVMTQTPLSLSVTPGQPASISCKSSKSLLHSDGITYLYWYLQKPGQSPQLLIYRMSNLASGVPDRFSGSGSGTDFTLKISRVEAEDVGVYYCAQMLEFPLTFGQGTKLEIKR
notes: also called hTB006; hTB006Ab
In the case of B2, the blocking efficacy in experiment [1] is above 70%; in experiment [2], above 90%.

B3: 84712F12-hIgG4(S288P) (antibody, V domains shown)
VH: QIQLVQSGPELKKPGETVKISCKASGYTFTNYGMNWVKQAPGKGLKWMGWINTYTGEPTYVDDFKGRFAFSLETSASTAYLRINNLKNEDTATYFCAKFGNYVGAMDYWGQGTSVTVSS
VL: DIQVIQSPSSLSASLGDTITITCHASQNINVWLSWYQQKPGNIPKLLIYKASNLHTGVPSRFSGSGSGTGFTLTISSLQPEDIATYYCQQGQSYPYTFGGGTKLELK
notes: also called 847.12F12-hIgG4 (S228P); F847C.12F12
For the molecule B3, the blocking efficacy in experiment [1] is above 70%.

B4: 14H10.2C9-hIgG4 (S228P) (antibody, V domains shown)
VH: QIQLVQSGPELKKPGETVKISCKASGYTFTTYGMGWVKQAPGKDLKWMGWINTYSGVPTYADDFKGRFAFSLETSASTAYLQISNLKNEDTATYFCSTPYEYDGAYWGQGTLVTVSA
VL: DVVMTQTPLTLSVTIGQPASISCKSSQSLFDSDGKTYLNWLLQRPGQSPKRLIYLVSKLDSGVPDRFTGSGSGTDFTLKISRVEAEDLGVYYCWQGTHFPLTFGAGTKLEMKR
notes: also called QC200137; IMTAB0172
B4: the figures for the blocking efficacy in experiment [1] and in experiment [2] were above 70% and above 90%, respectively.

B5: 846T.14A2-hIgG4(S338P) (antibody, V domains shown)
VH: QIQLVQSGPELKKPGETVKISCKASGYTFTNYGMNWVKQAPGKGLKWMGWINTYTGEPTYAGDLKGRFAFSLETSASTAYLQINNLKNEDTATYFCVRYTMDYWGQGTSVTVSS
VL: QAVVTQESALTTSPGETVTLTCRSSTGAVTTSNYANWVQEKPDHLFTGLIGGINNRVPGVPARFSGSLIGDKAALTITGAQTEDEAIYFCALWYSNHWVFGGGTKLTVL
notes: also called F846TC.14A2; QC200122
Molecule B5 yielded a blocking efficacy in experiment [1] above 70%.

B6: 846.1F5-hIgG4(S228P) (antibody, V domains shown)
VH: QIQLVQSGPELKKPGETVKISCKASGYTFTNYGMNWVKQAPGKGLKWMGWINTYTGEPSYADDFKGRFAFSLETSASTAYLQINNLKNEDMATYFCARWGGYDGDYYAMDYWGQGTSVTVSS
VL: NIMMTQSPSSLAVSAGEKVTMSCKSSQSVLYSSNQKNYLAWYQQKPGQSPKLLIYWASTRESGVPDRFTGSGSGTDFTLTISSVQPEDLAVYYCHQYLSSLTFGAGTKLELK
notes: also called F846C.1F5; QC200110
For B6, the blocking efficacy in experiment [1] is above 70%.

B7: 846.1H12-hIgG4(S228P) (antibody, V domains shown)
VH: QIQLVQSGPELKKPGETVKISCKASGYTFTNFGMNWVKQAPGKGLKWMGWINTYTGEPSYADDFKGRFAFSLETSASTAYLQINNLKNEDIATYFCARWGGYAGDYYAMDYWGQGTSVTVSS
VL: NIMMTQSPSSLAVSAGQKVTMSCKSSQSVLYSSSQKNYLAWYQQKPGQSPKLLIYWASTRESGVPDRFSGSGSGTDFTLTISSVQPEDLAVYYCHQYLSSLTFGAGTKLELK
notes: also called F846C.1H12; QC200172 IMTAB0196
For B7, the blocking efficacy in experiment [2] is above 90%.

B8: 846T.16B5-hIgG4(S228P) (antibody, V domains shown)
VH: QIQLVQSGPELKKPGETVKISCKASGYTFTNYGMNWVKQAPGKGLKWMGWINTYTGEPAYADDFKGRFAFSLETSASTAYLQINNLKNEDMATYFCARWGGYDGDYYAMDYWGQGTSVTVSS
VL: NIMMTQSPSSLAVSAGEKVTMSCKSSQSVLYSSNQKNYLAWYQQKPGQSPKLLIYWASTRESGVPDRFTGSGSGTDFTLTISSVQAEDLAVYYCHQYLSSLTFGAGTKLELK
notes: also called F846T.16B5; F846TC.16B5
As to B8, in experiment [1], the blocking efficacy was above 70%.

B9: 20D11.2C6-hIgG4(S228P) (antibody, V domains shown)
VH: EVQLQQSGPELVKPGASVKISCKASGYTFTDFYINWVKQSHGKSLEWIGDINPKNGGINYNPKFKIKATLTVDKSSSTSYMDLRGLTSEDSAVYYCTSGYGFPYWGQGTLVTVSA
VL: DIQMNQSPSSLSASLGDTITITCRASQNIYIWLSWYQQKPGNIPKLLIYKASNLHTGVPSRFSGSGSGTDFTLTISTLQPEDIATYFCLQGQSYPLTFGAGTKLEMKR
notes: also called QC200083
Turning to B9, the blocking efficacy in experiment [1] is above 70%.

B10: 15G7.2A7-hIgG4(S228P) (antibody, V domains shown)
VH: EVQLQQSGPELVKPGASVKISCKASGYTFTDYYMNWVKQSHGKSLEWIGDINPNNGGTNYNQKFKGKATLTVDKSSSTAYMELRSLTSEDSAVYYCTSGYGFPYWGQGTLVTVSA
VL: DIQMNQSPSSLSASLGDTISITCRASQNINIWLSWYQQKPGNIPQLLIYKASNLHTGVPSRFSGSGSGTDFTLTISSLQPEDIATYYCLQGQSYPLTFGAGTKLVMK
notes: also called QC200074
In experiment [1], B10 displayed a blocking efficacy above 70%.
